The supplement of paper PMC10567573
± gives the standard deviation.

Assay: protein stability index of a GFP-peptide fusion (GPS, HEK-293T) (PSI 1-6); higher = more stable
Conditions: c terminus: a fixed tail appended
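Also: 24-mer peptide tiles fused after GFP, lentivirally expressed, FACS-sorted into six equal bins by GFP/DsRed ratio, decoded by Illumina sequencing, PSI is the read-weighted mean bin number.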

Sequence	protein stability index (treatment: DMSO)	protein stability index (treatment: MLN4924 1 uM, 8 h)
PSSPLRLGSYKAQKTSRSSSIPCS [PPEF2]	3.86 ± 0.24	3.95 ± 0.21
CPAELFTNTRSDLDVFGRGDNISD [LUC7L3]	4.38 ± 0.26	4.65 ± 0.19
IMAFFLCLGLALGAVFSFLFRAIV [SLC29A1]	1.94 ± 0.14	2.19 ± 0.21
GAPEDDEEDDGRGRGLLRWDSFSA [DENND6A]	4.92 ± 0.078	4.98 ± 0.19
RSLNVFVKEDDKLIFHRHPVAQST [SPSB1]	3.15 ± 0.18	3.36 ± 0.26
FAVGYIKISWSTWGEMTLSLFSLL [SLC19A2]	3.18 ± 0.6	3.15 ± 0.34
VGHNHTYNMAPSALDSADLPPPSA [NFE2L1]	4.61 ± 0.16	4.43 ± 0.36
DKLKIDLLPDGRHAVVEVEDVPLA [TAF7L]	4.61 ± 0.15	4.8 ± 0.24
SSTTILVQWKEPEEPNGQIQGYRV [PTPRD]	2.91 ± 0.32	2.71 ± 0.46
SAHFTSGPLVPRLAGMANHGSPQL [TBX5]	3.35 ± 0.21	3.5 ± 0.13
LHAELCQAGSSQGLSLCQFQNFSL [LPCAT4]	2.42 ± 0.33	2.21 ± 0.13
SMVDLTSVTLEDVTPKKSPPPKTN [FAN1]	5.06 ± 0.12	4.9 ± 0.27
FGDVSERLALRQRLKCRSFKWYLE [GALNT9]	2.29 ± 0.59	2.54 ± 0.37
HRGPSGHTEASAQRSHMGKLKEPQ	5.1 ± 0.38	4.87 ± 0.5
LLQKYNMQFLIRSHECKPEGYEFC [PPEF2]	2.5 ± 0.84	2.27 ± 0.49
ADTGRIHRFVEKPQVFVSNKINAG [GMPPB]	3.46 ± 0.32	3.84 ± 0.18
VIMQVPERIVVAGNNEDVSFSRPA [MFF]	3.4 ± 0.3	3.47 ± 0.6
HQEQVEDLTASHDAALLEMENNHT [MTUS2]	5.51 ± 0.2	5.4 ± 0.3
PSEWRPLSEGCRAELAETIVYARV [CCDC3]	3.14 ± 0.32	2.51 ± 0.23
QLAEENERLKQEIERLTREVEATR [DDIT3]	5.4 ± 0.26	5.51 ± 0.32
HEALSRLWELCHLWLRPEVHTKEQ [ZNF396]	2.11 ± 0.45	2.4 ± 0.14
DNLLLDAKGHVKLSDFGLCTGLKK [STK38L]	3.12 ± 0.1	3.38 ± 0.44
ITEKIDVAFVDRADIKQYIGPPSA [TRIP13]	3.6 ± 0.15	3.54 ± 0.58

Sequence	protein stability index (treatment: DMSO)	protein stability index (treatment: MLN4924 1 uM, 8 h)
MKLEKEEFVTLKAIALANSDSMHI [ESRRG]	2.46 ± 0.22	2.48 ± 0.28
PLLLSHTLQELLARDTVQVELIPE [SNX8]	2.71 ± 0.23	2.73 ± 0.31
ADTNSDRLFTVNDVKVGGSKYGII [DCAF4]	3.01 ± 0.21	3.02 ± 0.28
IQIAFEEVPQLPPRASISHVTCVD [C2CD2L]	2.39 ± 0.16	2.46 ± 0.23
TSASFGEESTPGQTNSETAVVALT [HDAC6]	4.714 ± 0.027	5.05 ± 0.19
FPWIDAIMTQLRQEGWIHHLARHA [CRY1]	2.5 ± 0.46	2.96 ± 0.8
SERTDTAADGETTATEELEKTQDD [EPB41L3]	5.63 ± 0.2	5.59 ± 0.21
LGPELIKESNANPIFMRKDTKMSF [DPCD]	3.46 ± 0.084	3.43 ± 0.2
YPPPPPALPSSAPSGPPPPPPSVL [WASL]	4.54 ± 0.2	4.5 ± 0.16
SDELSWIIELLEKDGMAFQEALDP [ELF3]	2.62 ± 0.34	3.02 ± 0.26
GKSRLSPAGEMKPMPLSEGKSILL [BCL2L13]	3.44 ± 0.32	3.44 ± 0.32
RRNSSSSMSSRLSIYDNVPGSILY [DLC1]	2.75 ± 0.2	2.87 ± 0.45
MNIIELEIPDQNIDVEALQVAFGS [GMCL1]	2.86 ± 0.31	2.73 ± 0.072
HAAHVVCRELGYVEAKSWTASSSY [LOXL2]	2.31 ± 0.29	2.28 ± 0.17
IRERPAAIPIEIKSIDDTSNFDDF [STK38L]	4.31 ± 0.3	4.92 ± 0.19
LTPKGGVRTSYQPSSPGRFTKETT [TRIM29]	4.17 ± 0.16	4.21 ± 0.11
ASSMLRKSQLGFLNVTNYCHLAHE [DCAF4]	2.2 ± 0.41	2.42 ± 0.16
NHSLETCETTLFALRMATWNQILD [PTGFR]	2.25 ± 0.52	2 ± 0.27
VKKYKSMKLEKEEFVTLKAIALAN [ESRRG]	2.46 ± 0.32	2.66 ± 0.2
IWKLNLQTFQWVKLPATMPEPVYF [KLHDC10]	2.82 ± 0.7	2.63 ± 0.33
RYRGLPAPGPSPADKKRSGKKKIS [WAS]	4.76 ± 0.3	4.71 ± 0.21
FIIHGFIDKGDESWVTDMCKVGAS [PNLIPRP1]	1.98 ± 0.25	2.65 ± 0.48
KELRDGGEQDTWAGEGAEALARNL [NFE2L1]	5.26 ± 0.25	5.36 ± 0.27

Sequence	protein stability index (treatment: DMSO)	protein stability index (treatment: MLN4924 1 uM, 8 h)
SGRHILEDSCAELGESKEHMESRM [SDE2]	4.64 ± 0.35	4.48 ± 0.23
SYRPAYDQGGPVEILPFLYLGSAY [DUSP5]	2.08 ± 0.33	2.18 ± 0.32
VKIESVKLDFKEKAQAKVGSLDNA [MAP2]	3.5 ± 0.24	3.52 ± 0.24
GKNWSKLCKDCQVIDGRNVTVTDV [TPPP]	3.67 ± 0.14	3.92 ± 0.23
MYSEIQRERADIGGLMARPEYREW [FAM107A]	2.93 ± 0.26	2.92 ± 0.42
NQAAIMELDDTLKYSFLQFDPAPR [PPP2CA]	3.25 ± 0.17	3.38 ± 0.21
SISDVKFSHSGRYIMTRDYLTVKV [PPP2R2B]	2.37 ± 0.47	2.52 ± 0.57
NEIQCTGNEKSIIDCKFNAESQGC [LOXL2]	4.88 ± 0.36	4.79 ± 0.58
GGGNDRVRNLQSEVEGVKNIMTQN [VAMP8]	4.61 ± 0.34	4.75 ± 0.35
RDFLLDEANGLLPDDKLTLFCEVS [SPOPL]	3.03 ± 0.2	3.08 ± 0.34
INPYSNRESRILFSTWNLDHIIEK [DFFB]	2.54 ± 0.1	2.61 ± 0.099
LDNSRSILKRRYYRQHCTLELGSY [CTDNEP1]	2.34 ± 0.45	2.42 ± 0.31
SFIIYLKNIVIADFVMSLTFPFKI [P2RY14]	3.16 ± 0.29	3.22 ± 0.4
SLALGDLIYVVIDLPINVFKLLAG [EDNRA]	2.59 ± 1	3.28 ± 0.54
IVTLRHVLAAKERRCGELKRKLGL [TPD52L3]	2.2 ± 0.11	2.18 ± 0.13
IAVRKSRDKAKMRNLETQHKVLEL [CEBPB]	3.14 ± 0.36	3.54 ± 0.12
QDRDALHMEGLIVRERILGADNID [FEM1B]	4.38 ± 0.39	4.29 ± 0.28
NELTLNEKNFFPEYNYDWWEKKPF [CHGB]	2.73 ± 0.24	3 ± 0.35
LTPKSTPVKTLPFSPSQFLNFWNK [MYBL2]	2.24 ± 0.26	2.4 ± 0.18
AAGGDGELGSPLRRSISSSRSENV [PSD2]	5.07 ± 0.11	5.1 ± 0.19
PVPPSEGKSRLSPAGEMKPMPLSE [BCL2L13]	5.13 ± 0.22	5.08 ± 0.073
MGKLLQQPNTYADFEFLAFWQTQY [PKD2L1]	2.21 ± 0.56	2.27 ± 0.23
EKYKTQIDHYVGIARDQTKSIVEK [RTN3]	4.07 ± 0.2	4.15 ± 0.31

Sequence	protein stability index (treatment: DMSO)	protein stability index (treatment: MLN4924 1 uM, 8 h)
IWLDNLHCTGNEATLAACTSNGWG [LOXL2]	2.18 ± 0.31	2.27 ± 0.3
VNSQFTAAVFKETFKSLSHIDPDV [ALG2]	2.86 ± 0.47	3.05 ± 0.33
RGDPAHAGLAELGHRLAQKLQGLE [PBXIP1]	3.04 ± 0.34	3.29 ± 0.32
EALLDRESENASLREKLRLREAEI [LRRC45]	4.77 ± 0.26	4.89 ± 0.083
SISEKLSSTNFAMKRDVQEGQARC [C8orf76]	4.41 ± 0.23	4.29 ± 0.22
TSEESRPRLSQLSVTDVTTSSLRL [TNXB]	4.18 ± 0.29	4.24 ± 0.26
ELLSAPPPDLGAQRRHGWNPKDCS [SPSB2]	3.72 ± 0.14	3.48 ± 0.25
GQLTGGYKPNPQIYVKLIEECTDL [OAS1]	2.99 ± 0.21	3.06 ± 0.093
PVYVSCIAQDTCTTTDHSSNPGPV [SPAG8]	3.75 ± 0.39	3.9 ± 0.33
RLLLAESGLSFITFICYVASSASA [CMTM3]	2.53 ± 0.94	2.43 ± 0.77
LCAYGFFASLRPSEPFLTPYLLGP [SLC19A2]	2.94 ± 0.32	2.9 ± 0.56
ALVCQVDNDHKEAVGKMGFVVTML [ZER1]	2.29 ± 0.29	2.37 ± 0.5
TRLAFELFAEEQAEGPNRLLYKDG [LPCAT4]	3.85 ± 0.19	4.02 ± 0.2
SEARLSQRDLSPTAEDAELSDFEE [FCHSD1]	5.44 ± 0.38	5.53 ± 0.39
PRKRRRNGNEEDNHLPPQTKRSSR [FAM104A]	5.34 ± 0.16	5.36 ± 0.16
RRQAVAWLVAMHKAAKLLYESRDQ [ZFYVE21]	2.29 ± 0.54	2.36 ± 0.49
DNEDYPLFRELWRYHFATGVWHQM [KLHDC10]	2 ± 0.76	2.03 ± 0.46
LEDFFVMSDYRGFGIGSEILKNLS [SAT1]	2.38 ± 0.14	2.28 ± 0.44
SPPVDLFATASAAVPVSTSKPSSD [SNAP91]	5.31 ± 0.12	5.33 ± 0.17
AGEREDLWAGSKGKEFGYFPRDAV [MIA2]	3.47 ± 0.15	3.86 ± 0.51
